Test [1] deals with T1, β-CTF (C-terminal fragment of APP made by β-secretase cleavage) (UniProt P05067 672-770).
T1 construct: domain: β-CTF; also called APP-CTF
Put plainly: α-Flag IP from HeLa/APP cells incubated with N3-2A-F, Western blot for APP-CTFs. On the technique in general: A western blot detects proteins with antibodies after separation by electrophoresis.

Test [2] deals with T2, amyloid precursor protein (APP), transfected into HeLa or HEK293 cells (UniProt P05067 18-770).
T2 construct: whole, on cells; Scheinfeld et al, 2002)'; also called mature APP; HeLa-APP
Put plainly: α-Flag IP from HeLa/APP cells incubated with Flagged peptide, Western blot for APP.

The text below walks through data of patent US20140314790A1 (ALBERT EINSTEIN COLLEGE OF MEDICINE OF YESHIVA UNIVERSITY, published 2014).

T2 sequence (P05067 18-770): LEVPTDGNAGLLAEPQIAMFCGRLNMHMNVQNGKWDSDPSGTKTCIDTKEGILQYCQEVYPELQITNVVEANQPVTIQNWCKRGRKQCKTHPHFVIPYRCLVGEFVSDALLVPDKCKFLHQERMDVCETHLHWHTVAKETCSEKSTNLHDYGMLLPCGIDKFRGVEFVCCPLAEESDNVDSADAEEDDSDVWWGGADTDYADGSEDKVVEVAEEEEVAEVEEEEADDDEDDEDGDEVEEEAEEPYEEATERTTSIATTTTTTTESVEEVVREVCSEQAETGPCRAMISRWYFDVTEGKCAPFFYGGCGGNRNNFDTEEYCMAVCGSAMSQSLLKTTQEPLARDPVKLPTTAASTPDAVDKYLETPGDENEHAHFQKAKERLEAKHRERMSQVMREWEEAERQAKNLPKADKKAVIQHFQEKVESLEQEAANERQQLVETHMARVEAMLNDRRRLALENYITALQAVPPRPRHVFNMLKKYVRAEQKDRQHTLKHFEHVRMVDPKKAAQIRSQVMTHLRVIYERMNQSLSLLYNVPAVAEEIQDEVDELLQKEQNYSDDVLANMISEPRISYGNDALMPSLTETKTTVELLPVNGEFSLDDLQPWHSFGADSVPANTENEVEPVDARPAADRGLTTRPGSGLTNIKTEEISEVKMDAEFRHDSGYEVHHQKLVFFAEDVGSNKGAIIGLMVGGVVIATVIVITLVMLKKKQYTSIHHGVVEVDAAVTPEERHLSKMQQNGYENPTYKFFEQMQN
T1 sequence (P05067 672-770 limits assumed): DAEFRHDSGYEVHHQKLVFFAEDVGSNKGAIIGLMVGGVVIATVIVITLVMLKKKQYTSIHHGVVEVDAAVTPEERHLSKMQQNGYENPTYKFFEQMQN

B1: N3-2A fused to a C-terminal Flag epitope (N3-2A-F) (peptide, not shown: small tags and cut ends)
peptide: DAVYYCGLKY
notes: also called BRI2-derived peptide
Regarding B1, in test [1], the binding result is given as “no binding (tested: 40 µM)”.

B2: N3-4A-F (single amino acid N3 mutant N3-4A with Flag epitope) (peptide, not shown: small tags and cut ends)
peptide: DDVAYCGLKY
For the molecule B2, the binding result in test [2] is reported as “no binding (tested: 40 µM)”.
